Measured values as given in IntAct's records for PubMed 20098421.

B1: Trinucleotide repeat-containing gene 6C protein (Homo sapiens), Q9HCJ0 (parent)
chain: MEEKKKKKQEEKKKKEGAQKKAADQKTKVPEPTKTCSSQPQPAGTSTSTSTSTISSSNNGKRASASGQQPAASRYLPREVPPRFRQQEQKQLLKRGQPLPTGTLTSVSPTQGAGPAGVSPPPLPGAGTQHHPSKLQPDLSHSGLADHYENSHWGQQPTYRSEANCSWDKVIIDRTDKEAWPSITGTETESASECTTDTDSASNCGSENSSMATGSAQGNFTGHTKKTNGNNGTNGALVQSPSNQSALGAGGANSNGSAARVWGVATGSSSGLAHCSVSGGDGKMDTMIGDGRSQNCWGASNSNAGINLNLNPNANPAAWPVLGHEGTVATGNPSSICSPVSAIGQNMGNQNGNPTGTLGAWGNLLPQESTEPQTSTSQNVSFSAQPQNLNTDGPNNTNPMNSSPNPINAMQTNGLPNWGMAVGMGAIIPPHLQGLPGANGSSVSQVSGGSAEGISNSVWGLSPGNPATGNSNSGFSQGNGDTVNSALSAKQNGSSSAVQKEGSGGNAWDSGPPAGPGILAWGRGSGNNGVGNIHSGAWGHPSRSTSNGVNGEWGKPPNQHSNSDINGKGSTGWESPSVTSQNPTVQPGGEHMNSWAKAASSGTTASEGSSDGSGNHNEGSTGREGTGEGRRRDKGIIDQGHIQLPRNDLDPRVLSNTGWGQTPVKQNTAWEFEESPRSERKNDNGTEAWGCAATQASNSGGKNDGSIMNSTNTSSVSGWVNAPPAAVPANTGWGDSNNKAPSGPGVWGDSISSTAVSTAAAAKSGHAWSGAANQEDKSPTWGEPPKPKSQHWGDGQRSNPAWSAGGGDWADSSSVLGHLGDGKKNGSGWDADSNRSGSGWNDTTRSGNSGWGNSTNTKANPGTNWGETLKPGPQQNWASKPQDNNVSNWGGAASVKQTGTGWIGGPVPVKQKDSSEATGWEEPSPPSIRRKMEIDDGTSAWGDPSNYNNKTVNMWDRNNPVIQSSTTTNTTTTTTTTTSNTTHRVETPPPHQAGTQLNRSPLLGPVSSGWGEMPNVHSKTENSWGEPSSPSTLVDNGTAAWGKPPSSGSGWGDHPAEPPVAFGRAGAPVAASALCKPASKSMQEGWGSGGDEMNLSTSQWEDEEGDVWNNAASQESTSSCSSWGNAPKKGLQKGMKTSGKQDEAWIMSRLIKQLTDMGFPREPAEEALKSNNMNLDQAMSALLEKKVDVDKRGLGVTDHNGMAAKPLGCRPPISKESSVDRPTFLDKDGGLVEEPTPSPFLPSPSLKLPLSHSALPSQALGGIASGLGMQNLNSSRQIPSGNLGMFGNSGAAQARTMQQPPQPPVQPLNSSQPSLRAQVPQFLSPQVQAQLLQFAAKNIGLNPALLTSPINPQHMTMLNQLYQLQLAYQRLQIQQQMLQAQRNVSGSMRQQEQQVARTITNLQQQIQQHQRQLAQALLVKQPPPPPPPPHLSLHPSAGKSAMDSFPSHPQTPGLPDLQTKEQQSSPNTFAPYPLAGLNPNMNVNSMDMTGGLSVKDPSQSQSRLPQWTHPNSMDNLPSAASPLEQNPSKHGAIPGGLSIGPPGKSSIDDSYGRYDLIQNSESPASPPVAVPHSWSRAKSDSDKISNGSSINWPPEFHPGVPWKGLQNIDPENDPDVTPGSVPTGPTINTTIQDVNRYLLKSGGSSPPSSQNATLPSSSAWPLSASGYSSSFSSIASAPSVAGKLSDIKSTWSSGPTSHTQASLSHELWKVPRNSTAPTRPPPGLTNPKPSSTWGASPLGWTSSYSSGSAWSTDTSGRTSSWLVLRNLTPQIDGSTLRTLCLQHGPLITFHLNLTQGNAVVRYSSKEEAAKAQKSLHMCVLGNTTILAEFAGEEEVNRFLAQGQALPPTSSWQSSSASSQPRLSAAGSSHGLVRSDAGHWNAPCLGGKGSSELLWGGVPQYSSSLWGPPSADDSRVIGSPTPLTTLLPGDLLSGESL
B2: Trinucleotide repeat-containing gene 6C protein (Homo sapiens), Q9HCJ0-1 (parent)
chain: MATGSAQGNFTGHTKKTNGNNGTNGALVQSPSNQSALGAGGANSNGSAARVWGVATGSSSGLAHCSVSGGDGKMDTMIGDGRSQNCWGASNSNAGINLNLNPNANPAAWPVLGHEGTVATGNPSSICSPVSAIGQNMGNQNGNPTGTLGAWGNLLPQESTEPQTSTSQNVSFSAQPQNLNTDGPNNTNPMNSSPNPINAMQTNGLPNWGMAVGMGAIIPPHLQGLPGANGSSVSQVSGGSAEGISNSVWGLSPGNPATGNSNSGFSQGNGDTVNSALSAKQNGSSSAVQKEGSGGNAWDSGPPAGPGILAWGRGSGNNGVGNIHSGAWGHPSRSTSNGVNGEWGKPPNQHSNSDINGKGSTGWESPSVTSQNPTVQPGGEHMNSWAKAASSGTTASEGSSDGSGNHNEGSTGREGTGEGRRRDKGIIDQGHIQLPRNDLDPRVLSNTGWGQTPVKQNTAWEFEESPRSERKNDNGTEAWGCAATQASNSGGKNDGSIMNSTNTSSVSGWVNAPPAAVPANTGWGDSNNKAPSGPGVWGDSISSTAVSTAAAAKSGHAWSGAANQEDKSPTWGEPPKPKSQHWGDGQRSNPAWSAGGGDWADSSSVLGHLGDGKKNGSGWDADSNRSGSGWNDTTRSGNSGWGNSTNTKANPGTNWGETLKPGPQQNWASKPQDNNVSNWGGAASVKQTGTGWIGGPVPVKQKDSSEATGWEEPSPPSIRRKMEIDDGTSAWGDPSNYNNKTVNMWDRNNPVIQSSTTTNTTTTTTTTTSNTTHRVETPPPHQAGTQLNRSPLLGPGRKVSSGWGEMPNVHSKTENSWGEPSSPSTLVDNGTAAWGKPPSSGSGWGDHPAEPPVAFGRAGAPVAASALCKPASKSMQEGWGSGGDEMNLSTSQWEDEEGDVWNNAASQESTSSCSSWGNAPKKGLQKGMKTSGKQDEAWIMSRLIKQLTDMGFPREPAEEALKSNNMNLDQAMSALLEKKVDVDKRGLGVTDHNGMAAKPLGCRPPISKESSVDRPTFLDKDGGLVEEPTPSPFLPSPSLKLPLSHSALPSQALGGIASGLGMQNLNSSRQIPSGNLGMFGNSGAAQARTMQQPPQPPVQPLNSSQPSLRAQVPQFLSPQVQAQLLQFAAKNIGLNPALLTSPINPQHMTMLNQLYQLQLAYQRLQIQQQMLQAQRNVSGSMRQQEQQVARTITNLQQQIQQHQRQLAQALLVKQPPPPPPPPHLSLHPSAGKSAMDSFPSHPQTPGLPDLQTKEQQSSPNTFAPYPLAGLNPNMNVNSMDMTGGLSVKDPSQSQSRLPQWTHPNSMDNLPSAASPLEQNPSKHGAIPGGLSIGPPGKSSIDDSYGRYDLIQNSESPASPPVAVPHSWSRAKSDSDKISNGSSINWPPEFHPGVPWKGLQNIDPENDPDVTPGSVPTGPTINTTIQDVNRYLLKSGGKLSDIKSTWSSGPTSHTQASLSHELWKVPRNSTAPTRPPPGLTNPKPSSTWGASPLGWTSSYSSGSAWSTDTSGRTSSWLVLRNLTPQIDGSTLRTLCLQHGPLITFHLNLTQGNAVVRYSSKEEAAKAQKSLHMCVLGNTTILAEFAGEEEVNRFLAQGQALPPTSSWQSSSASSQPRLSAAGSSHGLVRSDAGHWNAPCLGGKGSSELLWGGVPQYSSSLWGPPSADDSRVIGSPTPLTTLLPGDLLSGESL

Variants of: B1
Conditions: with pabp1_human PABPC1, P11940
Target sequence in this assay (P11940 whole entry): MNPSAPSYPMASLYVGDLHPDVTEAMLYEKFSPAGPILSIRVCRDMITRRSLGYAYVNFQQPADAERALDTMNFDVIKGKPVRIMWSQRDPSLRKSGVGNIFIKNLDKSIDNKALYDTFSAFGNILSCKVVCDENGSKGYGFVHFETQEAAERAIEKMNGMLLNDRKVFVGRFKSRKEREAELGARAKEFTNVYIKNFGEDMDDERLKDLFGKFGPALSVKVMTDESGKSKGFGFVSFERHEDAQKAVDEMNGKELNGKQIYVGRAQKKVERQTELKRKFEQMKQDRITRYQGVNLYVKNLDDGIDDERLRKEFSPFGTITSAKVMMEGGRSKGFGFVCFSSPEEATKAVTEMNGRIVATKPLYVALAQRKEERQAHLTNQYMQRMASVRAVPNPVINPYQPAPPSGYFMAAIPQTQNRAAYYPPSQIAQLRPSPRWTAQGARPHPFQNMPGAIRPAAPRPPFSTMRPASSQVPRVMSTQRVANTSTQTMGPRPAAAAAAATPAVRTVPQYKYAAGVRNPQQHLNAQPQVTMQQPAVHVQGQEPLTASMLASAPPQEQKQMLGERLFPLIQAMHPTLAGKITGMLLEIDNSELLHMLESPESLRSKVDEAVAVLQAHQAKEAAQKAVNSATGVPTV

Variant | effect of a mutation on the interaction
E1595A;F1596A | disrupting interaction
W1602A;K1603A | disrupting interaction

Variants of: B2
Conditions: with pabp1_human PABPC1, P11940
Target sequence in this assay (P11940 whole entry): as above

Variant | effect of a mutation on the interaction
E1388A;F1389A;W1395A;K1396A | disrupting interaction
